{"source": "patent US20210292396A1", "experiment_in_all_cases": "cell-based or functional assay", "key": {"[1]": {"biological_target": "Env of HIV isolate 0260.v5.c36 (clade A) (HIV)"}, "[2]": {"biological_target": "Env of HIV isolate 0439.v5.c1 (clade A) (HIV)"}, "[3]": {"biological_target": "Env of HIV isolate 16055-2.3 (clade C) (HIV)"}, "[4]": {"biological_target": "Env of HIV isolate 247-23 (clade D) (HIV)"}, "[5]": {"biological_target": "Env of HIV isolate 3873.v1.c24 (clade C) (HIV)"}, "[6]": {"biological_target": "Env of HIV isolate 426c (clade C) (HIV)"}, "[7]": {"biological_target": "Env of HIV isolate 5768.04 (clade B) (HIV)"}, "[8]": {"biological_target": "Env of HIV isolate 6101.10 (clade B) (HIV)"}, "[9]": {"biological_target": "Env of HIV isolate 6644.v2.c33 (clade C) (HIV)"}, "[10]": {"biological_target": "Env of HIV isolate 6838.v1.c35 (clade C) (HIV)"}, "[11]": {"biological_target": "Env of HIV isolate A07412M1.vrc12 (clade D) (HIV)"}, "[12]": {"biological_target": "Env of HIV isolate AC10.29 (clade B) (HIV)"}, "[13]": {"biological_target": "Env of HIV isolate BG1168.01 (clade B) (HIV)"}, "[14]": {"biological_target": "Env of HIV isolate BaL.26 (clade B) (HIV)"}, "[15]": {"biological_target": "Env of HIV isolate CNE10 (clade B) (HIV)"}, "[16]": {"biological_target": "Env of HIV isolate CNE20 (clade BC) (HIV)"}, "[17]": {"biological_target": "Env of HIV isolate CNE3 (clade AE) (HIV)"}, "[18]": {"biological_target": "Env of HIV isolate DU172.17 (clade C) (HIV)"}, "[19]": {"biological_target": "Env of HIV isolate Q23.17 (clade A) (HIV)"}, "[20]": {"biological_target": "Env of HIV isolate Q842.d12 (clade A) (HIV)"}, "[21]": {"biological_target": "Env of HIV isolate R3265.c6 (clade AE) (HIV)"}, "[22]": {"biological_target": "Env of HIV isolate T257-31 (clade AG) (HIV)"}, "[23]": {"biological_target": "Env of HIV isolate TH966.8 (clade AE) (HIV)"}, "[24]": {"biological_target": "Env of HIV isolate THRO.18 (clade B) (HIV)"}, "[25]": {"biological_target": "Env of HIV isolate TRJO.58 (clade B) (HIV)"}, "[26]": {"biological_target": "Env of HIV isolate X1632.S2.B10 (clade G) (HIV)"}, "[27]": {"biological_target": "Env of HIV isolate ZM176.66 (clade C) (HIV)"}, "[28]": {"biological_target": "Env of HIV isolate ZM53.12 (clade C) (HIV)"}, "[29]": {"biological_target": "Envelope protein of SVA.MLV (clade NA)"}, "[30]": {"biological_target": "HIV Env of isolate 0815.v3.c3 (HIV)"}, "[31]": {"biological_target": "HIV Env of isolate 16055-2.3 (HIV)"}, "[32]": {"biological_target": "HIV Env of isolate 247-23 (HIV)"}, "[33]": {"biological_target": "HIV Env of isolate 3168.v4.c10 (HIV)"}, "[34]": {"biological_target": "HIV Env of isolate 3415.v1.c1 (HIV)"}, "[35]": {"biological_target": "HIV Env of isolate 3589.v1.c4 (HIV)"}, "[36]": {"biological_target": "HIV Env of isolate 3817.v2.c59 (HIV)"}, "[37]": {"biological_target": "HIV Env of isolate 6405.v4.c34 (HIV)"}, "[38]": {"biological_target": "HIV Env of isolate 6535.3 (HIV)"}, "[39]": {"biological_target": "HIV Env of isolate A03349M1.vrc4a (HIV)"}, "[40]": {"biological_target": "HIV Env of isolate BG1168.01 (HIV)"}, "[41]": {"biological_target": "HIV Env of isolate CM244.ec1 (HIV)"}, "[42]": {"biological_target": "HIV Env of isolate CNE10 (HIV)"}, "[43]": {"biological_target": "HIV Env of isolate CNE57 (HIV)"}, "[44]": {"biological_target": "HIV Env of isolate CNE8 (HIV)"}, "[45]": {"biological_target": "HIV Env of isolate HO86.8 (HIV)"}, "[46]": {"biological_target": "HIV Env of isolate KNH1209.18 (HIV)"}, "[47]": {"biological_target": "HIV Env of isolate MI369.A5 (HIV)"}, "[48]": {"biological_target": "HIV Env of isolate MW965.26 (HIV)"}, "[49]": {"biological_target": "HIV Env of isolate Q23.17 (HIV)"}, "[50]": {"biological_target": "HIV Env of isolate SO18.18 (HIV)"}, "[51]": {"biological_target": "HIV Env of isolate T251-18 (HIV)"}, "[52]": {"biological_target": "HIV Env of isolate TH976.17 (HIV)"}, "[53]": {"biological_target": "HIV Env of isolate UG037.8 (HIV)"}}}
{"substance": "PGT121 (antibody)", "values": [{"measurement": "IC50, pseudovirus neutralization", "setting": "[1]", "value": 0.0587, "unit": "µg/mL"}, {"measurement": "IC50, pseudovirus neutralization", "setting": "[2]", "value": "> 50", "unit": "µg/mL"}, {"measurement": "IC50, pseudovirus neutralization", "setting": "[3]", "value": 0.312, "unit": "µg/mL"}, {"measurement": "IC50, pseudovirus neutralization", "setting": "[4]", "value": "> 50", "unit": "µg/mL"}, {"measurement": "IC50, pseudovirus neutralization", "setting": "[5]", "value": 0.045, "unit": "µg/mL"}, {"measurement": "IC50, pseudovirus neutralization", "setting": "[6]", "value": "> 50", "unit": "µg/mL"}, {"measurement": "IC50, pseudovirus neutralization", "setting": "[7]", "value": 0.118, "unit": "µg/mL"}, {"measurement": "IC50, pseudovirus neutralization", "setting": "[8]", "value": 0.0123, "unit": "µg/mL"}, {"measurement": "IC50, pseudovirus neutralization", "setting": "[9]", "value": 0.037, "unit": "µg/mL"}, {"measurement": "IC50, pseudovirus neutralization", "setting": "[10]", "value": 0.0613, "unit": "µg/mL"}, {"measurement": "IC50, pseudovirus neutralization", "setting": "[11]", "value": 0.042, "unit": "µg/mL"}, {"measurement": "IC50, pseudovirus neutralization", "setting": "[12]", "value": 0.067, "unit": "µg/mL"}, {"measurement": "IC50, pseudovirus neutralization", "setting": "[13]", "value": "> 50", "unit": "µg/mL"}, {"measurement": "IC50, pseudovirus neutralization", "setting": "[14]", "value": 0.0227, "unit": "µg/mL"}, {"measurement": "IC50, pseudovirus neutralization", "setting": "[15]", "value": 0.0193, "unit": "µg/mL"}, {"measurement": "IC50, pseudovirus neutralization", "setting": "[16]", "value": 0.005, "unit": "µg/mL"}, {"measurement": "IC50, pseudovirus neutralization", "setting": "[17]", "value": "> 50", "unit": "µg/mL"}, {"measurement": "IC50, pseudovirus neutralization", "setting": "[18]", "value": 0.065, "unit": "µg/mL"}, {"measurement": "IC50, pseudovirus neutralization", "setting": "[19]", "value": 0.0107, "unit": "µg/mL"}, {"measurement": "IC50, pseudovirus neutralization", "setting": "[20]", "value": 0.0217, "unit": "µg/mL"}, {"measurement": "IC50, pseudovirus neutralization", "setting": "[21]", "value": "> 50", "unit": "µg/mL"}, {"measurement": "IC50, pseudovirus neutralization", "setting": "[22]", "value": "> 50", "unit": "µg/mL"}, {"measurement": "IC50, pseudovirus neutralization", "setting": "[23]", "value": "> 50", "unit": "µg/mL"}, {"measurement": "IC50, pseudovirus neutralization", "setting": "[24]", "value": "> 50", "unit": "µg/mL"}, {"measurement": "IC50, pseudovirus neutralization", "setting": "[25]", "value": 1.63, "unit": "µg/mL"}, {"measurement": "IC50, pseudovirus neutralization", "setting": "[26]", "value": "> 50", "unit": "µg/mL"}, {"measurement": "IC50, pseudovirus neutralization", "setting": "[27]", "value": 4.1, "unit": "µg/mL"}, {"measurement": "IC50, pseudovirus neutralization", "setting": "[28]", "value": 0.00267, "unit": "µg/mL"}, {"measurement": "IC50, pseudovirus neutralization", "setting": "[29]", "value": "> 50", "unit": "µg/mL"}, {"measurement": "IC80", "setting": "[30]", "value": 0.112, "unit": "µg/mL"}, {"measurement": "IC80, pseudovirus neutralization", "setting": "[31]", "value": 2.78, "unit": "µg/mL"}, {"measurement": "IC80, pseudovirus neutralization", "setting": "[32]", "value": "> 50", "unit": "µg/mL"}, {"measurement": "IC80, pseudovirus neutralization", "setting": "[33]", "value": 1.43, "unit": "µg/mL"}, {"measurement": "IC80", "setting": "[34]", "value": "> 50", "unit": "µg/mL"}, {"measurement": "IC80", "setting": "[35]", "value": "> 50", "unit": "µg/mL"}, {"measurement": "IC80, pseudovirus neutralization", "setting": "[36]", "value": "> 50", "unit": "µg/mL"}, {"measurement": "IC80, pseudovirus neutralization", "setting": "[37]", "value": 0.136, "unit": "µg/mL"}, {"measurement": "IC80", "setting": "[38]", "value": 0.0217, "unit": "µg/mL"}, {"measurement": "IC80, pseudovirus neutralization", "setting": "[39]", "value": 0.359, "unit": "µg/mL"}, {"measurement": "IC80", "setting": "[40]", "value": "> 50", "unit": "µg/mL"}, {"measurement": "IC80", "setting": "[41]", "value": "> 50", "unit": "µg/mL"}, {"measurement": "IC80", "setting": "[42]", "value": 0.048, "unit": "µg/mL"}, {"measurement": "IC80", "setting": "[43]", "value": 0.0777, "unit": "µg/mL"}, {"measurement": "IC80", "setting": "[44]", "value": "> 50", "unit": "µg/mL"}, {"measurement": "IC80", "setting": "[45]", "value": "> 50", "unit": "µg/mL"}, {"measurement": "IC80", "setting": "[46]", "value": 0.0287, "unit": "µg/mL"}, {"measurement": "IC80", "setting": "[47]", "value": 0.128, "unit": "µg/mL"}, {"measurement": "IC80, pseudovirus neutralization", "setting": "[48]", "value": 0.093, "unit": "µg/mL"}, {"measurement": "IC80", "setting": "[49]", "value": 0.0267, "unit": "µg/mL"}, {"measurement": "IC80, pseudovirus neutralization", "setting": "[50]", "value": 0.0167, "unit": "µg/mL"}, {"measurement": "IC80", "setting": "[51]", "value": 23.2, "unit": "µg/mL"}, {"measurement": "IC80", "setting": "[52]", "value": "> 50", "unit": "µg/mL"}, {"measurement": "IC80", "setting": "[53]", "value": 0.307, "unit": "µg/mL"}]}
